The source of these data is the DeepSol protein solubility set.

This data set can be described thus: soluble on expression in E. coli; label from the status in PepcDB or PDB records.
As to “MSLDQYGNIRAMGIHSLLYCERLFYLEEVEGILVADDRVYAGRTLHEELEPNEDFSGRIESFHYTSEKLEVSGKVDRIQKRDGDWIPYEHKRGRARIGTNGPEAWESDQCQVTVYALLLEEATGRNISEGKIRYHGSKDLVKIEIDEELRSKALKTIDRAKELSTSTNRPPVAQNENLCKNCSLAPVCLPEETRVITENEYEPIRLFPEKREGHHHHHH”, the “soluble on expression in E. coli” value is reported as “soluble”.
As to “MSLDRLIHWYNMAVYPSIFATMLPVDPRRALGAFLRSHRERLPPPPLALGRRRTPGWRREELAEACGVSLTWITWLEQGRDVSASPHALARLAEALHLAPAERGYLFELAGRRDPVSPVASDDGIPPAVLALPGHMNVPAYLLDRTWTARAWNSAASRLFTGWLDGDHDRNLLRFIFLSPAAPRLIADWDQRAHRVVAEFRADFSRRLRDPALQALVESLAAQSQAFRTLWHEQAVLDREGGERSFLNPARRFHQSTLILAANADIKLVSLVPMDGEEFEGHHHHHH”, the “soluble on expression in E. coli” value is on record as “soluble”.
As to “MSLDRNLYEDTFVVFDVETTGLSAVYDTIIELAAVKIKGGEIVDRFESFANPHHALSQTTIDLTGITDDMVNDAPEVADVLKDFHTWMGNDILVAHNASFDMGFLNQGFQRIDYEKASNPVVDTLELARFLLPELRNHRLNTLCKHLDIELTQHHRAIYDAEATGYLLWKLVQRLVEKEISNHEGHHHHHH”, the “soluble on expression in E. coli” value is “soluble”.
Consider “MSLDSRPAVLEISASIIDISENALEQLGVDWRLHNSRFDLQTGNGTNTMLNNPGSLDSVATTAGAAAAIAATPAGGVLSAVIGGGSRYLMARISALQQTDQARITANPKVATLDNTEAVMDNRQNFYVPVAGYQSADLYAISAGVSLRVLPMVVMDGGTVRIRMNVHIEDGQITSQQVGNLPITSQSEIDTQALINEGDSLLIAGYSVEQQSKSVDAVPGLSKIPLVGALFRTDQTTGKRFQRMFLVTPRVITPEGHHHHHH”, for which the “soluble on expression in E. coli” value is “soluble”.
Consider “MSLDTMWFRNIDNFINEINRFALLGTVTNKNGWLINNGIYYAGRLGKLHSTPTKGQQVVTDAMRIYPYLGEQYFVAAEQITTNYGGIDANGKTVNLDQIREEGKKKYLPKTYTFDDGAIVFKAGDKVSEEKIKRLYWAAKEVRSQFYRTVGSDKPLEKWTCEGHHHHHH”, for which the “soluble on expression in E. coli” value is recorded as “not soluble”.
As for “MSLDTSRRRRLARRSIAASFRLFLTVAKGLGVLDYRIDGAEILHQERGCLVVANHPTLIDYVLLASVMPETDCLVKSALLKNPFLGGVVRATDYLINSEAETLLPRCQQRLAQGDTILIFPEGTRTKPGEKMTLQRGAANIAVRCASDLRIVTIGCSEHLLDKQSKWYDVPPDRPFFTVAVHGRVEINKFYDATSQEPALAARQLNRHLLLQLQQGCLPLSGINNASALSGNEGHHHHHH”, the “soluble on expression in E. coli” value is on record as “not soluble”.
Take “MSLDTTALPHTTFEGIPLDGKNKQDIQKIVQQKVEELNKKSLNYVFENNTQTYTWKDLGVEYKEKDIVANIFKEQQGNIIDRYNMRKKAIHGELKREYKLKPQLNSTAYEAFMEDKYNETLKNPVNAELNISGTTVNISESQNGEKIDKEQLAILTKQAIAANTQNIKLPIASIKPERSTEDIQNMGIKQVIAEYSTPMTGRNGSQSFNVNKSANTLSGAIVAPDETFSFNGRVGITDAAHGYKSAAVYLQGKVVQSAGGGVCQVSSTLYGAVLRADLGVVARSNHSMPVHYLPLGQDAAVADYGPDLKFKNNTGHYIYIQAFSDGNRITTRIFGTPTGKNVEVSSKVISNTGNKITAVTYKKVTKDGQVISNGQISKSVYKKEGHHHHHH”: the “soluble on expression in E. coli” value is recorded as “not soluble”.
Turning to “MSLDVSDDADRLQTLLYSSYSADVVRQLERPLLDDGVPLMRMAASAVARVTLSLLDDEDLDVEDARVTVLAGAGDNGGDGLYAGAELAREGAQVTAVAVGRSLHEDAFREFVRAGGRVLVLDPAADIPGCTSGFSAGEAGERLQAAVECARGAHVVLDAMTGIGVAGALRGVAGTLASSLGMDGVLPDKPALPNNDPSADLPLVVAVDAPSGVGVDDGSLPGPYIPADVTVTFGAMKPCAMVPPASYACGRITLVDFGFDVDDAVPFAEMTDGDFVADSVRLPSLADGKYSRGVVGLVTGSARYPGAAVLSARAAACANVGMVRYLGPQRAQDMILAVLPEAVLGKGRVQSWVVGSGVPAEGDVASGDDMQRATIAALLDHYALEDGDGSRNERAEGMPPIVVDAGALDLLPCHVVPQVVITPHAGELAALLNRLDADMADVVSRQWVEARPLRAALRAHELTGATVLLKGAVTIVVGADGDGNTRIILSGRAPAWMATAGSGDVLAGVLGALLAQQDDMLSDDPALVPEVAAAAAYMHGLAGAMASGSEQRGWHRPHLYGHAGKTPASAIGHPIVAGDVVAAVPRAFGELLREGHHHHHH”, the “soluble on expression in E. coli” value was “soluble”.
As to “MSLDVSLKLKGIDGALEDNVKAYLSSIPEKDYSTSLRFQARLDQSITEALNALGYYHAKISYSISEGNDELIVNIHKGLPVKIKVMDVVISGEAKEDEEFTNLIAKSPLKVGRILNQGEYDSLKSGIRNLALQRGYFNGDFKLNKLEVIPELNEANVRLHYDSGIRYHFGPVEITGSQIWENRVESMRPFEIGEPYLVSDVGEYNQNLSNTDWFSSVFVEPDLSKLEDGRELPIKVSLAPAAKNQIETGIGYSTDTGVRGTLKWKKPWVSARGHSFNTALSLSKPEQTITAGYKIPLDDVLREYYQLQFGLKHLDNRDTESLESNLAVERHWLTDGGWHKTVYVRHLYENFSQGLQDDGVQFVLPGATFSRTRVRGGSMPMWGDKQSVTVEYGDPALLSETRVLRLLGRSSWIRGIGENHRGLFRLEGGANITEEFEKLSPSLRFFAGGDNNIRGYGYESISPVDESGALTGAKYILSSTLEYQYRVYGNWWAATFYDIGDAFNDTPEWKSGAGVGIRWASPVGPVSFDFAWGLDEKPNNEFRIHFSLGPELEGHHHHHH”, the “soluble on expression in E. coli” value is on record as “not soluble”.
Regarding “MSLDVSVSATGHDNVTARHDSTLELTTDDFLTPAGDCILGIDADCSPAAFSDAFVAACQDAAATITLVLDTPQHRDEITGSGHPDLTFTNDRSMVGRTSTYVDDRTVFVDADKAAADVDREMVAALADGAPLTATLRVDEGHHHHHH”, the “soluble on expression in E. coli” value was “soluble”.
In the case of “MSLEDYCTPGAFELERLFWKGSPQYTHVNEVWPKLYIGDEATALDRYRLQKAGFTHVLNAAHGRWNVDTGPDYYRDMDIQYHGVEADDLPTFDLSVFFYPAAAFIDRALSDDHSRKRDVRVRNLCRKAGPLGLLVAEGKGKILVHCVMGRSRSATLVLAYLMIHKDMTLVDAIQQVAKNRCVLPNRGFLKQLRELDKQLVQQRRRSEGHHHHHH”, the “soluble on expression in E. coli” value was “soluble”.
“MSLEGDRGQDDVLRILVATDTHLGYKADDSERGGDSFETFQEILEIGRNLKVDFLLHGGDLFDENRPSRATLYRTFCLLRKFCFGDGAVSFEVLEGAAESRGRGEGFRFGLNYLDENINVCMPIFAMHGNHDDPGEQSHLSPLDLLEAAHLINYFGRCDATDEVTIKPILIKKGQTKVAIYGVGWIRDARLHRAFNNGKVRFLVPSASAGEDSVDDWFNIMVVHQNMYKGAFGGQPAKNCIHEQMLPDFLDLAIWGHEHDCHLDLRDAPQGTFRVLQPGSSIATSLVAGEALPKHVFLLEIRGENYRVTPQRLRTVRPLLFEDVALSDLLHSRPPLAPALSGVRTPQSRVSNSGAGRNLQTAQPAEDRDVWQLLTDAVEELLSRFAREEGHHHHHH”: the “soluble on expression in E. coli” value is listed as “soluble”.
As for “MSLEGEVEKTQAKGSIILATTTSTSDSGLLDYLLPEFTKDTGIEAKVVAVGTGQALQMGKDGEADVLLVHSKAAEEEFVAAGDGLERKDVMYNDFILVGPANDPLKLKQELPNDIVGALKKISEQKFKFISRGDDSGTHKKELALWTEVGITPEGDYYVSAGRGMGDVLKMADEMQAYTIADRGTYLSMKADLGLDIIVEKDTNLFNQYGVIPVNPDKNENINAEGAKAFEEWILSEKAQSLIGEYGKEKYGAPLFTPNAAKEGHHHHHH”, the “soluble on expression in E. coli” value is on record as “soluble”.
With “MSLEGFIEGSSLTVLNRNFYFNRDNRDSTAPTYNSGKGNTNGYSEAWAHAIISKFNSGFTQGTVGFGVDAFAMIGLKLDTGDGRNGGRSSFDVLPVDNKGEARDEYTKVGGAAKVRLFDTIVKVGDVFPSTPVVASGDSRLLPESFRGVTVENTSIQGLTLQGGRLHAMSQPVSSNLNDNFVTFYGGPVNSPWIGYGGGDYSINDNWTVSVYASQLKDVWNQYYAGTSVVYPLSDDLALIGGFNYYKAVDEGKKRLGEFDNNIWSAKVGVRYGAHTLALSHQRNNGDDDFDYLRQSDSIFVDNSIQYSDFNSPKERSWMLRYDLNFTSYGIPGLTFMTRYARGSGADYSNANQFYMRTDDNGNPLDNQKRWERDVEVKYVVQTGPAKDLSFRLRQATTRATAFESDLDETRVIIEYPLSILEGHHHHHH”, the “soluble on expression in E. coli” value is recorded as “soluble”.
Turning to “MSLEITKIEVHVIGPEDKRYTWSEDIEEVYQSNTLIKIFTDEDIVGEAAIWNATYFEYDKYTAESLRHLLPILIGKDPLNREEILYDIRPRVFPQPPGAQALIDNALWDILGKKCKSPIYKILGGRRDKIKSYASTVMYNTIDEYLKVVDEMKEQGFSAVKFHTYCIPKKDLELAEAARKAFPSMSFMIDAENNYDLESSLIVAKKLEKLEFTWFEAPLPDYDFAGYKKITDSVGIKVIPSGNWVVDLQRFSEAIHNKVWSATRTDMAMMGGITNCKKAIDLSSAGGLDCEIMSWGYTLVSAANLHLMLSSDNCSYYEQPLPYNNFEFGMKDVLRTSQDGYMYAPTKPGLGMEIDWDKMMSKNIYSITCEEGKKISLVHSEGHHHHHH”, the “soluble on expression in E. coli” value is recorded as “soluble”.
In the case of “MSLEKKDNVFTFGNALSLYYKDYETPLIINTDDINQFKRSDKFYVLGNEFNAEIKYPYFMSSLYCIESGDIVMVYNAVELIQRPRLIIKALMALRKKYGFSKLIYLPGIGDPYIIPVLVYAGADLFDDTYIKEESINNIKYTMMGKTKSSDNNINDNLKFANDIISLLRSSIKTGTLREFVEKFQYSSRAIEMLRIIDNDYFSDYSMVFPVYTPYIKANTIESLNRPDIVSYRNYIKNDYSKPDVENLLILPCSAKKPYSKSKSHKKILSRIEKYRKYIHELIVTSPVGLVPRELESMYPAAFYDIPVIGLWYEDEKKMINDLLKSYLSKNRYKNIIAYIDEDLNFIKSSGNIILIEGNILSEEKLSELESTLRDLTINSPKMDHLFNYKSMLSYQFGTWIKDYLDDIKISRSYNMDMVTRNGRALFVFNEKLGRFTINRNGAGIFLNAGKKIVYIDDFKPTSYVFNAGIKDATDDIKPGDEVIIVHNNEIRGVGTALISYRAMIDLDHGAGVKVREGHHHHHH”, the “soluble on expression in E. coli” value was “soluble”.
The same measure for “MSLEKKFVIWGRNPIIEALRAGRNLEKIYVAHDSHPPKELLELAKKRGVKVQRISRKKVEELAGTKKTQGVVALLSPVNYVSPHELFKECIEKKSFFIVIDHITDPQNVGNLLRTCEVLGGVGALISKDRTSPINETVVKASSGAVFHLKISKVSSLSRELKNFQKMGGWVFAVEKGGKDIREVDIPLPVALVLGSEDKGVSKSVLDISDQIVTIPMKGKVTSLNVGSAGAIAMWETAKKILEGHHHHHH”: “soluble”; for “MSLEKKMEEKKKIKLIATDMDGTLVNDAKEVPASFAPWVLSHPDQQMVIASGRPYYTNEELFKEIKDHLIFIGDNGGLIYQQGQVLAKAGITAEEAKFCLDLFKDEPLANPILCGASQAICHDPKGDRNFLKQLDTYYIKRRYVEDLEAEVNSDEIIKFTVYIEGGAAESIYRQLPEMPGNLSAVLAGPEWIDIVNKDANKGAAVKKIADLKGIKQDEILAFGDYLNDLTMLEAAGTSYAMVNGHPDLKKIADHIAPSNNDEGVMQILRKLFDEGHHHHHH”: “soluble”.
As for “MSLEKKVVKFFTVDNMEKEEAYLNEMAQNGWFFQKYKSFRYHFKQGEPAKYSYAIDFKENEGDEDAYKTLFEDAGWETVFSYPVLNGNWMYFRKAVAPGETEEAIFTDETSLIQLYKNIRKREGHHHHHH”, the “soluble on expression in E. coli” value was “soluble”.
